Test results taken from US20050031631A1.
Changes are numbered by the printed parent chain. Values belong to the binder of their own block, whether it stands above or below them.

Columns and labels:
[1] = biological target: human IgE from a pool of sera (n=10) of Pj monosensitive allergic patients (human); assay: ELISA inhibition: pool of sera (n=10, 1:5) preincubated with the protein (0.25-20 ug/ml), then on wells coated with rParj1; bound IgE detected
[2] = biological target: human IgE of ten monosensitive Pj allergic patients (single sera / the patients themselves) (human); assay: cell-based or functional assay

% inhibition [1]: 15%
B2: PjD mutant of Par j 1.0102 (Cys29->Ser, Cys30->Ser, Cys50->Ser and Cys52->Ser) (protein, not shown: small tags and cut ends)
chain: QETCGTMVRALMPCLPFVQGKEKEPSKGSSSGAKRLDGETKTGPQRVHASESIQTAMKTYSDIDGKLVSEVPKHCGIVDSKLPPIDVNMDCKTVGVVPRQPQLPVSLRHGPVTGPSDPAHKARLERPQIRVPPPAPEKA

% inhibition [1]: 95%
B5: recombinant Par j 1.0102, major allergen of Parietaria judaica (wild type) (protein, not shown: small tags and cut ends)
chain: B2 chain with S29C, S30C, S50C, S52C

The next lines start with the binder.

B1: PjB mutant of Par j 1.0102 (Cys50->Ser and Cys52->Ser) (protein, not shown: small tags and cut ends)
chain: B2 chain with S29C, S30C
% inhibition [1]: 85%
skin prick test, patients with Type I immediate hypersensitivity (out of 10 patients) [2]: 9

B3: PjA mutant of Par j 1.0102 (Cys29->Ser and Cys30->Ser) (protein, not shown: small tags and cut ends)
chain: B2 chain with S50C, S52C
% inhibition [1]: 16%
skin prick test, patients with a positive reaction (out of 10 patients) [2]: 3

B4: PjC mutant of Par j 1.0102 (Cys4->Ser, Cys29->Ser and Cys30->Ser) (protein, not shown: small tags and cut ends)
chain: B2 chain with C4S, S50C, S52C
% inhibition [1]: 14%
